# Data from publication PMC9087215.
# Key:
# [1] = target: Klebsiella pneumoniae PriA helicase (Klebsiella pneumoniae subsp. pneumoniae MGH 78578) (UniProt A6TGC5)
# PaSSB = PaSSB (Pseudomonas aeruginosa, UniProt P40947 1-165); assay: EMSA
# PaSSB(W54A) = PaSSB(W54A) (Pseudomonas aeruginosa, UniProt P40947 1-165, W54A); assay: EMSA
# PaSSB(W88A) = PaSSB(W88A) (Pseudomonas aeruginosa, UniProt P40947 1-165, W88A); assay: EMSA
# PaSSB(W40A) = PaSSB(W40A) (Pseudomonas aeruginosa, UniProt P40947 1-165, W40A); assay: EMSA
# PaSSB(F60A) = PaSSB(F60A) (Pseudomonas aeruginosa, UniProt P40947 1-165, F60A); assay: EMSA
molecule,measurement,setting,value
KpSSBn-StSSBc chimeric protein (from UniProt P0A2F6 92-176),"ATPase activity of KpPriA with 10 μM KpSSBn-StSSBc, fold stimulation",[1],14 fold
TTTTTTTTTTTTTTTTTTTTTTTTTTTTTTTTTTTTTTTTTTTTTTTTTT (ssDNA) [dT50],apparent K (half saturation),PaSSB,355 ± 21 nM
same,apparent K (half saturation),PaSSB(W54A),522 ± 26 nM
same,apparent K (half saturation),PaSSB(W88A),1230 ± 61 nM
same,apparent K (half saturation),PaSSB(W40A),434 ± 19 nM
same,apparent K (half saturation),PaSSB(F60A),569 ± 24 nM
